These results are taken from patent US20240254220A1 (CENTRICSBIO, published 2024).

The target of one test is T1, mouse CD300c (mouse).
T1 sequence (A2A7V7 whole entry, looked up): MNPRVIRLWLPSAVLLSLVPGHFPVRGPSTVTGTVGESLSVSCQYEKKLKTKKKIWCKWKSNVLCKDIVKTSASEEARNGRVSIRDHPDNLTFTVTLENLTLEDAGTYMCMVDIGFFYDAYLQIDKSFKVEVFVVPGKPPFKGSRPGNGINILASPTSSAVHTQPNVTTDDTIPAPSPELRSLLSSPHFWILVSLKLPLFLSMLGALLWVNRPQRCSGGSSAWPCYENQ
The test can be described thus: cell-based or functional assay.

Test [1] concerns the target T2, CD300c antigen (11832-H08H, Sino Biological) (human, UniProt Q08708 21-183).
T2 construct: Bought antigen; also called CD300c protein; CD300 antigen-like family member C
T2 sequence (looked up): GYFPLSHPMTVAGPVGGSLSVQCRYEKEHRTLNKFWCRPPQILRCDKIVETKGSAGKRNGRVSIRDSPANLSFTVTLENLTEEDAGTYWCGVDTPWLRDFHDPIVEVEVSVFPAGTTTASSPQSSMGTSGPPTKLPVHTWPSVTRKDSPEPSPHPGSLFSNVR
The test can be described thus: binding ELISA on coated antigen (8 µg/mL), HRP anti-Fc detection, 450 nm (Experimental Example 2.5). On the procedure:
(§1) In order to identify that the anti-CD300c monoclonal antibody CL7 specifically binds only to CD300c without binding to other B7 family proteins, binding ELISA was performed. More specifically, each of CD300c antigen, CD300a antigen, or seven B7 family protein antigens (PD-L1 [B7-H1] (Sino Biological), ICOS Ligand[B7-H2] (Sino Biological), CD276[B7-H3] (Sino Biological), B7-H4 (Sino Biological), CD80[B7-1] (Sino Biological), CD86[B7-2] (Sino Biological), CD273[PD-L2] (Sino Biological)) in a coating buffer (0.1 M sodium carbonate, pH 9.0) was coated on an ELISA plate at a concentration of 8 μg/mL per well, and then bound to the plate by incubation at 2° C. to 8° C. overnight. The unbound antigen was removed by washing with PBST three times, and then […] of blocking buffer (5% skim milk in PBST) was added to each well. Subsequently, blocking was performed at room temperature for 1 hour, followed by washing again with PBST. Thereafter, CL7 was diluted in quadruplicate with PBS, incubated with the antigen at room temperature for 1 hour for antigen binding 1 hour later, and washed three times with PBST. Then, a secondary antibody (HRP-conjugated anti-Fc IgG) diluted to 4 μg/mL in blocking buffer was added thereto, followed by incubation at room temperature for 1 hour. Subsequently, the unbound antibody for detection was removed using PBST, and then a TMB solution was added thereto, followed by incubation for 10 minutes for development. Then, 2 N sulfuric acid solution was added to terminate the development reaction, and the absorbance was measured at 450 nm to identify the antibody specifically binding to the CD300c antigen.
On the technique in general: In an ELISA, binding on a coated surface is turned into a signal by an enzyme label.

Test [2] deals with T3, ICOS Ligand[B7-H2] (Sino Biological) (UniProt O75144 19-258, limits assumed).
T3 sequence (looked up): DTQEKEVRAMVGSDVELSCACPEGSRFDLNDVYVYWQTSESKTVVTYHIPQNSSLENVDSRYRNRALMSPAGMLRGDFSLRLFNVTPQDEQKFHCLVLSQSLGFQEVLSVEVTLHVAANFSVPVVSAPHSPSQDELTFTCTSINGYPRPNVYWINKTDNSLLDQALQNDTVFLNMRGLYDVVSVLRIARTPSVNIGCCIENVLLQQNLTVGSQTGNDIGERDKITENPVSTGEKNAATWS
The description is as above. The method, then:
as §1

Test [3] deals with T4, CD273[PD-L2] (Sino Biological) (UniProt Q9BQ51 20-219, limits assumed).
T4 sequence (looked up): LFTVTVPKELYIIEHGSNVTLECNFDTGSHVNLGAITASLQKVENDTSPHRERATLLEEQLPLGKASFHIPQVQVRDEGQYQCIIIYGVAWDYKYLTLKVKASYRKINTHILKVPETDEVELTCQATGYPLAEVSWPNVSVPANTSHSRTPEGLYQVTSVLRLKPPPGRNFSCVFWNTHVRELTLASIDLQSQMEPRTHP
The test is described as above. On the procedure: as §1

Test [4] has as its target PD-L1 [B7-H1] (Sino Biological) (UniProt Q9NZQ7 19-239). The description is as above. On the procedure: as §1
Test [5] concerns the target T5, CD276[B7-H3] (Sino Biological) (UniProt Q5ZPR3 29-461, limits assumed).
T5 sequence (looked up): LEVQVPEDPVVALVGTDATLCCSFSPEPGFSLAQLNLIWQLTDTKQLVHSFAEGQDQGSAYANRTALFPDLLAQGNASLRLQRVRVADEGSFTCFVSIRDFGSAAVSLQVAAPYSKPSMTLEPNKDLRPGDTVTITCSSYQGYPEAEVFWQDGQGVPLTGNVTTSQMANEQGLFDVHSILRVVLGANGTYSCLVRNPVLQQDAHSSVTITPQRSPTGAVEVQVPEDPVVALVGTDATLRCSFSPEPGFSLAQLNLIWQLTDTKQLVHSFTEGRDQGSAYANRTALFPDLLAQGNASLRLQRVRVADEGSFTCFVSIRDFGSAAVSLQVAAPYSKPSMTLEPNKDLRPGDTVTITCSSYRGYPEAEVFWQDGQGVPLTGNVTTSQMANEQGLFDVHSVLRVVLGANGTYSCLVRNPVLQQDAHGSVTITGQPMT
The description is as above. On the procedure:
as §1

The target in test [6] is T6, CD86[B7-2] (Sino Biological) (UniProt P42081 24-245, limits assumed).
T6 sequence (looked up): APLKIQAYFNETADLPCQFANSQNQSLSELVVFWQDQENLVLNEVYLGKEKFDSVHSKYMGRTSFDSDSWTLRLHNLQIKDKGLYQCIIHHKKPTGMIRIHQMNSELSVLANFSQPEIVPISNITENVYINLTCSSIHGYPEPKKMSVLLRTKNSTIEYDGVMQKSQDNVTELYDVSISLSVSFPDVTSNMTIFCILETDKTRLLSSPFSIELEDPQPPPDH
Described as above. The method, then: as §1

PD-L1 [B7-H1] (Sino Biological), sequence (Q9NZQ7 19-239 limits assumed): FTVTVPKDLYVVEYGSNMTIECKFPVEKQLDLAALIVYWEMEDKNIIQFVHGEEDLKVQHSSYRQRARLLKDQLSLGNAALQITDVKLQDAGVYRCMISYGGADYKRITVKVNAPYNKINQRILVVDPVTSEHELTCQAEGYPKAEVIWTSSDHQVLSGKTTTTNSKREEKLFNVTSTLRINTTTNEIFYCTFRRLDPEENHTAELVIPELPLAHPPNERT

B1: CL7 (antibody, V domains shown)
VH: EVQLLESGGGLVQPGGSLRLSCAASGFTFSRYAMSWVRQAPGKGLEWVSAISGSGGSTYYADSVKGRFTISRDNSKNTLYLQMNSLRAEDTAVYYCARSSQGIFDIWGQGTLVTVSS
VL: QSVLTQPPSASGTPGQRVTISCSGNNIGTRRVHWYQQLPDTAPKLLIYSKNNRPSGVPDRFSGSKSGTSASLAISGLRSEDEADYYCAAWDDSLSGPVFGGGTKLTVL
notes: detected with anti-human IgG (H+L) and anti-Fc IgG; also called anti-CD300c monoclonal antibody CL7; anti-CD300c monoclonal antibody (CL7)
A word on the EC50 (read off the curve): it is the concentration needed to bring the measured effect to its halfway point. A higher EC50 (read off the curve) goes with lower potency in that assay. As to B1, the “cancer cell proliferation inhibitory effect, CT26 mouse colon cancer cells, 10 ug/mL antibody, 5 days, CCK-8” value with mouse CD300c came out at 66%. Moreover, the “EC50 (read off the curve)” value in test [1] is roughly 0.2 µg/mL. For the same molecule, the binding result in test [2], in test [3], in test [4], in test [5] and in test [6] was “no binding (tested: log10 about 0.4 ug/ml (about 2.5 ug/ml))” throughout.
